From patent US20240336672A1 (INSTITUT PASTEUR, published 2024)

B1: Cv2.3235 (recombinant human IgG1) (antibody, V domains shown)
VH: EVQLVESGGGLIQPGGSLRLSCAASGFTVSRNYMSWVRQAPGKGLEWVSVIYSGGSTFYADSVKGRFTISRDNSKNTLYLQMNSLRAEDTAVYYCARDGDYYGMDVWGQGTTVTVSS
VL: DIQMTQSPSFLSASVGDRVTITCRASQGISSFLAWYQQKPGKAPKLLIYGASTLQSGVTSRFSGSGSGTEFTLTISSLQPEDFATYYCQRLDSYPPITFGQGTRLEIKR
B2: Cv2.3194 (recombinant human IgG1) (antibody, V domains shown)
VH: EVQLVESGGGLIQPGGSLRLSCAASGITVTSNYMSWVRQAPGKGLEWVSVIYPGGSTFYADSVKGRFTISRDNSKNTLYLQMNSLRAEDTAVYYCARDLVVYGMDVWGQGTTVTVSS
VL: EIVLTQSPGTLSLSPGERATLSCRASQSVSSSYLAWYQQKPGQAPRLLIYGASSRATGIPGRFSGSGSGTDFTLTISRLEPEDFAIYYCQQGVTFGGGTKVEIKR
B3: Cv2.1169 (recombinant human IgG1) (antibody)
heavy: QVQLVQSGPEVKKPGTSVKVSCKASGFTFTTSAVQWVRQARGQRLEWIGWIVVGSGNTNYAQKFQERVTITRDMSTTTAYMELSSLRSEDTAVYYCAAPYCSGGTCLDGFDIWGQGTMVTVSSASTKGPSVFPLAPSSKSTSGGTAALGCLVKDYFPEPVTVSWNSGALTSGVHTFPAVLQSSGLYSLSSVVTVPSSSLGTQTYICNVNHKPSNTKVDKKVEPKSCDKTHTCPPCPAPELLGGPSVFLFPPKPKDTLMISRTPEVTCVVVDVSHEDPEVKFNWYVDGVEVHNAKTKPREEQYNSTYRVVSVLTVLHQDWLNGKEYKCKVSNKALPAPIEKTISKAKQPREPQVYTLPPSRDELTKNQVSLTCLVKGFYPSDIAVEWESNGQPENNYKTTPPVLDSDGSFFLYSKLTVDKSRWQQGNVFSCSVMHEALHNHYTQKSLSLSPGK
light: not shown
notes: also called Cv2.1169 IgG
B4: Cv2.5213 (recombinant human IgG1) (antibody, V domains shown)
VH: EVQLVESGGGLIQPGGSLRLSCAASGFTVSSNYMSWVRQAPGKGLEWVSLIYSGGSTYYADSVKGRFTISRDNSKNTLYLQMNSLRAEDTAVYYCARDLNYYGMDVWGQGATVTVSS
VL: DIQMTQSPSSLSASVGDRVTITCRASQGISSYLAWYQQKPGKAPKLLIYAASTLQSGVPSRFSGSGSGTDFTLTISSLQPEDFATYYCQQLDSYSPFTFGPGTKVDIKR
B5: Cv2.1353 (recombinant human IgG1) (antibody, V domains shown)
VH: EVQLVESGGGLVQPGGSLRLSCAASGVTVSSNYMNWVRQAPGKGLEWVSVIYSGGSTFYADSVKGRFIISRDNSKNTLYLQMNSLKTEDTAVYYCARDLGPMGFDIWGQGTMVTVSS
VL: DIQMTQSPSFLSASVGDRVTITCRASQGISSYLAWYQQKPGKAPKLLIYAASTLQSGVPSRFSGSGSGTEFTLTISSLQPEDFATYYCQQLNSDPPVTFGPGTKVDIKR
B6: COV2-2196 (parental IgG1 version) (antibody, V domains shown)
VH: QMQLVQSGPEVKKPGTSVKVSCKASGFTFMSSAVQWVRQARGQRLEWIGWIVIGSGNTNYAQKFQERVTITRDMSTSTAYMELSSLRSEDTAVYYCAAPYCSSISCNDGFDIWGQGTMVTVSS
VL: not shown
B7: ADG-2 (antibody, V domains shown)
VH: EVQLVESGGGLVKPGGSLRLSCAASGFTFSSYYMNWVRQAPGKGLEWVSSISEDGYSTYYPDSLKGRFTISRDSAKNSLYLQMNSLRADDTAVYYCARDFSGHTAWAGTGFEYWGQGTLVTVSS
VL: QSVLTQPPSVSGAPGQRITISCTGSSSNIGAGYDVHWYQQLPGTAPKLLIYGSSSRNSGVPDRFSGSKSGTSASLAITGLQAEDEADYYCQSYDSSLSVLYTFGTGTKVTVL
B8: Cv2.5179 (recombinant human IgG1) (antibody, V domains shown)
VH: QVQLVQSGPEVKKPGTSVKVSCKASGFTFTSSAVQWVRQARGQRLEWIGWIVVGSGNTNYAQKFQERVTITRDMSTSTAYMELSSLRSEDTAVYYCAAPHCSSTSCYDAFDIWGQGTMVTVSS
VL: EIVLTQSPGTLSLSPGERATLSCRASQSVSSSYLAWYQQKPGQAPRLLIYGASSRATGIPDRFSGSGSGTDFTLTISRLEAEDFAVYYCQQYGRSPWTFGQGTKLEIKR
notes: also called Cv2.5179 IgG
B9: TIX (antibody, V domains shown)
VH: QMQLVQSGPEVKKPGTSVKVSCKASGFTFMSSAVQWVRQARGQRLEWIGWIVIGSGNTNYAQKFQERVTITRDMSTSTAYMELSSLRSEDTAVYYCAAPYCSSISCNDGFDIWGQGTMVTVSS
VL: not shown
notes: also called Tixagevimab
B10: Adintrevimab (antibody, V domains shown)
VH: EVQLVESGGGLVKPGGSLRLSCAASGFTFSSYYMNWVRQAPGKGLEWVSSISEDGYSTYYPDSLKGRFTISRDSAKNSLYLQMNSLRADDTAVYYCARDFSGHTAWAGTGFEYWGQGTLVTVSS
VL: QSVLTQPPSVSGAPGQRITISCTGSSSNIGAGYDVHWYQQLPGTAPKLLIYGSSSRNSGVPDRFSGSKSGTSASLAITGLQAEDEADYYCQSYDSSLSVLYTFGTGTKVTVL

Tests used:
[1] = target: T1, SARS-CoV-2 spike, Wuhan strain, on virus or pseudotyped particles (SARS-CoV-2, UniProt P0DTC2 14-1273); test: cell-based or functional assay
[2] = target: T2, SARS-CoV-2 S1 domain, Wuhan (SARS-CoV-2, UniProt P0DTC2 16-681); test: SPR (Biacore), antibody immobilised
[3] = target: T2, SARS-CoV-2 S1 domain, Wuhan; test: ELISA, coated antigen; also: test concentration or dose not given here
[4] = target: T2, SARS-CoV-2 S1 domain, Wuhan; test: SPR (Biacore), IgG immobilized, viral protein as analyte
[5] = target: T2, SARS-CoV-2 S1 domain, Wuhan; test: SPR (Biacore), antibody coupled to CM5 chip, viral protein as analyte
[6] = target: T1, SARS-CoV-2 spike, Wuhan strain, on …; test: cell-based or functional assay; remark: listed apart in the source
[7] = target: T2, SARS-CoV-2 S1 domain, Wuhan; test: ELISA
[8] = target: T2, SARS-CoV-2 S1 domain, Wuhan; test: ELISA; design: unit not given beside the values
[9] = target: SARS-CoV-2 RBD domain, Wuhan (SARS-CoV-2); test: RBD-ACE2 competition ELISA
[10] = target: SARS-CoV-2 RBD domain, Wuhan (SARS-CoV-2); test: ELISA; design: unit not given beside the values
[11] = target: SARS-CoV-2 RBD domain, Wuhan (SARS-CoV-2); test: RBD-ACE2 competition ELISA; design: unit not given beside the values
For OD405nm in this document: test concentration or dose not given here.
For PseudoNEUT (%) in this document: test concentration or dose not given here.
For S-FuseNEUT (%) in this document: test concentration or dose not given here.

| Binder | PseudoNEUT (%) [1] [%] | S-FuseNEUT (%) [1] [%] | Kd [2] [nM] | ELISA OD [3] [OD] | OD405nm [7] | other results |
| --- | --- | --- | --- | --- | --- | --- |
| B1 | 100 | 100 | 18.9 | 3.9 | – | – |
| B2 | 100 | 100 | – | 3.7 | 3.4 | Kd [4]: 1.2 nM; Kd [5]: < 0.001 nM; Pseudoneutralization IC50 [6]: 18.9 ng/mL; Pseudoneutralization IC90 [6]: 241 ng/mL; S-Fuse neutralization IC50 [6]: 3 ng/mL; S-Fuse neutralization IC90 [6]: 9.8 ng/mL |
| B3 | 100 | 95 | – | 3.5 | 3.3 | Kd [4]: 1.44 nM; koff [4]: 0.000354 s⁻¹; kon [4]: 246000 M⁻¹ s⁻¹; Kd [5]: < 0.001 nM; Pseudoneutralization IC50 [6]: 3 ng/mL; Pseudoneutralization IC90 [6]: 12.4 ng/mL; S-Fuse neutralization IC50 [6]: 1.5 ng/mL; S-Fuse neutralization IC90 [6]: 3.5 ng/mL |
| B4 | 100 | 96 | 520 | 3.5 | – | – |
| B5 | 100 | 100 | 6 | 3.5 | – | – |
| B6 | – | – | – | – | – | AUC [8]: 3 |
| B7 | – | – | – | – | – | AUC [8]: 3 |
| B8 | – | – | – | – | – | IC50 (read off the curve) [9]: ~600 ng/mL; AUC (Binding) [10]: 11; AUC (Blocking) [11]: 103 |
| B9 | – | – | – | – | 3.3 | – |
| B10 | – | – | – | – | 3.3 | – |
